A word on the Kd: it is a measure of binding affinity in units of concentration. What is called EC50 is the concentration at which the effect is half-maximal.

One assay has as its target FcRn (UniProt P55899). Nature of the assay: SPR.
The target in a further assay is FcγRI (UniProt P12314). Nature of the assay: SPR. For orientation: In SPR one partner is held on a chip, and binding of the other changes the refractive index at the surface.
A further assay concerns the target FcγRIIA_(H131) (UniProt P12318). Nature of the assay: SPR.
Another assay concerns the target FcγRIIIA_(F158) (UniProt P08637). Nature of the assay: SPR.
For another assay, the target named is FcγRIIIA_(V158). Nature of the assay: SPR.
Sequence of FcγRIIIA_(V158) (P08637 17-208): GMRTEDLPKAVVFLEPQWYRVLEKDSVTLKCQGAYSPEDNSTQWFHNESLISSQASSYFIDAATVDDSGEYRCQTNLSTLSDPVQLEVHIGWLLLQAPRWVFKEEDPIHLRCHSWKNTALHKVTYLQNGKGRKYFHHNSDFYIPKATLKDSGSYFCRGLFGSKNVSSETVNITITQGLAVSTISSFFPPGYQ
The target in a further assay is human Claudin18.2 (Homo sapiens, UniProt P56856-2). Nature of the assay: flow cytometry on cells. Background: A flow cytometer gives signals particle by particle.

Sequence of FcγRIIA_(H131) (P12318 34-317): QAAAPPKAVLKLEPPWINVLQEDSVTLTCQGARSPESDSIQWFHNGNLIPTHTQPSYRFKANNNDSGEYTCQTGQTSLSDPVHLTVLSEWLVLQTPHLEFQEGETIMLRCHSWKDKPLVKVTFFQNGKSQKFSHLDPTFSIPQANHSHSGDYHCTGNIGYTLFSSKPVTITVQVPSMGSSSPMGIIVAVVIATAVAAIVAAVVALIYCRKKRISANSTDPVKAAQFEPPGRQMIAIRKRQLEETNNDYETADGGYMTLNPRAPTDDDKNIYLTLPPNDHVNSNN
Sequence of FcRn (P55899 24-365, chain 1 of 2): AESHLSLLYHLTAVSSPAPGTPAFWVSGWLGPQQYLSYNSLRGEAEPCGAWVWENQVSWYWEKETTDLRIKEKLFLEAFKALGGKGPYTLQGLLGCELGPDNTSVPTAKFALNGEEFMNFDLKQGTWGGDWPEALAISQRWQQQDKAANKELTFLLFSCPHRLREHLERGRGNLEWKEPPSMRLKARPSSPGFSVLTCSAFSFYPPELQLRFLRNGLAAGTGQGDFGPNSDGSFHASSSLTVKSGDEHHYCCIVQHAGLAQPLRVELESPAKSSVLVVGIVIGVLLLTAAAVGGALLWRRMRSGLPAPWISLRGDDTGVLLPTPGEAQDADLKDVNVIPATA
Sequence of FcRn (P61769 21-119, chain 2 of 2, further chain): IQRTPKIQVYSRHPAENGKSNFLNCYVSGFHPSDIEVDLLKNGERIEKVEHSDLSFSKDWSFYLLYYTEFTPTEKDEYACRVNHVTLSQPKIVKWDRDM
Sequence of FcγRI (P12314 16-374): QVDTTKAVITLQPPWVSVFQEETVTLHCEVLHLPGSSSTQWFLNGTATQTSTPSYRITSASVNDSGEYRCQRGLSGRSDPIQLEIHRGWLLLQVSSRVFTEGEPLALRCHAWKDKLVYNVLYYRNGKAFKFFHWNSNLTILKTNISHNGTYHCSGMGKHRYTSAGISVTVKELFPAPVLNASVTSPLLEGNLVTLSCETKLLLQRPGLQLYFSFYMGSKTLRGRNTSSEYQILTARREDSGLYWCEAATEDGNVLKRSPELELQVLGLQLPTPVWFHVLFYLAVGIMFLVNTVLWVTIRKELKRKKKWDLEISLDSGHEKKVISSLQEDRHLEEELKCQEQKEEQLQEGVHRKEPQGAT
Sequence of FcγRIIIA_(F158) (P08637 17-254): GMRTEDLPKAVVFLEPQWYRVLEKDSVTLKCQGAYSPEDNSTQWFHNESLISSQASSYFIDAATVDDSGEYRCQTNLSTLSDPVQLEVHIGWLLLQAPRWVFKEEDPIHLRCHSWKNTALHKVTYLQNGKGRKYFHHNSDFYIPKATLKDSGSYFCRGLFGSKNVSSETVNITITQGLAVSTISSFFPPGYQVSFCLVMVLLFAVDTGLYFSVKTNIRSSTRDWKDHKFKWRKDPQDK

Regarding CM311 (antibody), the Kd in the assay with FcRn came to 1530 nM; with FcγRI, 7.23 nM; with FcγRIIA_(H131), 2.77 µM; with FcγRIIIA_(F158), 330 nM; in the assay with FcγRIIIA_(V158), 78.9 nM.
In the case of CMG901 (antibody), the Kd in the assay with FcRn came to 1730 nM; with FcγRI, 5.95 nM; with FcγRIIA_(H131), 6.29 µM; with FcγRIIIA_(F158), 490 nM; with FcγRIIIA_(V158) it was 126 nM.

B1: Zolbetuximab analog (antibody, V domains shown)
VH: QVQLQQPGAELVRPGASVKLSCKASGYTFTSYWINWVKQRPGQGLEWIGNIYPSDSYTNYNQKFKDKATLTVDKSSSTAYMQLSSPTSEDSAVYYCTRSWRGNSFDYWGQGTTLTVSS
VL: DIVMTQSPSSLTVTAGEKVTMSCKSSQSLLNSGNQKNYLTWYQQKPGQPPKLLIYWASTRESGVPDRFTGSGSGTDFTLTISSVQAEDLAVYYCQNDYSYPFTFGSGTKLEIK
In the assay with human Claudin18.2, B1 came in with a half-maximal effective concentration (EC50) of 2.2 nM.

The values above are taken from publication PMC11528232 (Cell Reports Medicine, 2024).
